The values that follow are results of earlier work, collected in PMC3012698, “Characterization of a Novel Interaction between Bcl-2 Members Diva and Harakiri” (PLoS ONE, 2010).

For this data set the following is noted: ref [10]. The protocol: Circular dichroism (CD) experiments were performed on Harakiri's cytosolic domain to obtain information on its conformational behavior. […] Thus, the cytosolic domain of Harakiri is largely unstructured. Consequently, the NMR spectra of Hrk_ΔTM show small amide ^1H chemical shift dispersion (from ∼7.9 to 8.7 ppm) and severe signal overlap ( Fig. 6 ). These spectral features together with the absen ...

Bmf: BH3-only protein Bmf: the “structural state of unbound BH3-only protein” value was “unstructured”.

With Bim: BH3-only protein Bim, the “folding upon binding to Bcl-2 members” value is on record as “undergoes partial folding upon binding to Bcl-2 members” and the “structural state of unbound BH3-only protein” value is on record as “unstructured”.
